Measurements: PMC10154330, “Machine learning-driven multifunctional peptide engineering for sustained ocular drug delivery” (Nature Communications, 2023)
Read-outs that look alike come from different tables or passages of the source. Peptide text beside a SMILES is read from it. * marks the point of attachment. X1 = CC(C)[C@H](NC(=O)CCCCCN1C(=O)CC(*)C1=O)C(=O)N[C@@H](CCCNC(N)=O)C(=O)Nc1ccc(C[N+]2=C(Nc3ccc4nccnc4c3Br)NCC2)cc1

What was measured:
[1] = In vitro stability of HR97-brimonidine conjugate in human aqueous or vitreous; assay type: in vitro ADME; settings: for remaining at 24 h, 1 mg/mL / remaining at 168 h, 1 mg/mL / remaining at 336 h, 1 mg/mL / remaining at 672 h, 1 mg/mL: male, human, human aqueous humor (donor eyes, 0.02 µm filtered), stability in human aqueous humor, read-out: Normalized HR97-VC-PAB-brimonidine (%)
Experimental: Two pairs of human donor eyes were obtained from the Lions Gift of Sight under protocol IRB00056984 approved by the Johns Hopkins University School of Medicine Institutional Review Board. Both donors were male with an mean age of 74.5. The post-mortem times ranged from 35–40 h. The eyes were kept at 4 °C during transport and arrived within 48 h post-mortem. The vitreous and aqueous were first isolated and subsequently combined and filtered through the 0.02 µm syringe filter to remove cell debris. HR97-brimonidine (1 mg/mL) was incubated with human aqueous or vitreous (700 µL) at 37 °C (n = 3). On days 0, 1, 7, 14, 21 and 28, 100 µL of the solutions were collected, diluted with 900 µL of acetonitrile, and characterized by HPLC (Prominence LC2030, Shimadzu) with Luna® 5 µm C18(2) 100 Å LC column 250 × 4.6 mm (Phenomenex). The elution flow rate was 1 mL/min and with gradient of 10/90/90/10% solvent B (TFA 0.1% in ACN) in 1/11/13/15 min at λmax = 250 nm for HR97-brimonidine (RT = 4.6 min).

[2] = tested on: human cathepsins B, K, L, and S; test: Cathepsin cleavage assay
[3] = tested on: intraocular pressure; test: IOP measurement in normotensive Dutch Belted rabbits; assay type: in vivo
Experimental: (§1) For the IOP measurements in normotensive rabbits, Dutch Belted rabbits (2–3 kg) were used (n = 5). IOP was measured with a hand-held rebound tonometer icareTONOVET (Vantaa, Finland) in the awake and gently restrained rabbit. Each rabbit was acclimatized to the IOP measurement procedure for at least 5 days to obtain a stable background IOP reading. A mean of three IOP measurements for an individual eye were taken every other day for 6 days (3 times in total) and used as a baseline value. For the ICM injection procedure, rabbits were anesthetized with ketamine/xylazine and received topical anesthesia with 0.5% proparacaine hydrochloride. A corneal pre-puncture was performed with a 30 G needle, followed with a single bolus ICM injection of 200 µg (mass of brimonidine) of HR97-brimonidine or brimonidine tartrate solution in 100 µL saline using a 28 G needle. After the procedure, topical bacitracin-neomycin-polymyxin ophthalmic ointment was applied to both eyes to prevent infection and dry eyes. On day 7, an ophthalmologist masked to treatment evaluate the HR97-brimonidine injected eyes with the following items: functionality of lids, lashes, conjunctiva, cornea transparency, pigmentation of corneal endothelium, depth of anterior chambers, inflammation, fibrin strands, and symmetry of the lens[113]. […] In a separate study, a corneal pre-puncture was performed with a 30 G needle, followed with a single bolus ICM injection of 200 µg (mass of brimonidine) containing a physical mixture of unconjugated HR97 and brimonidine tartrate (HR97 + brimonidine), the equivalent amount of HR97 peptide alone, or saline alone in 100 µL saline. On day 7, day 14, day 21, and day 28, an ophthalmologist masked to treatment performed the same safety evaluations described above. IOP was measured on days 2, 3, 4, 5, 6, 7, 8, 10, 12, 14, 16, 18, and 20 after the ICM injection, and change in IOP from the baseline (ΔIOP) was reported. The mean of three IOP measurements was taken for each eye by one observer, and then confirmed by a masked observer. Alternatively, a single topical eye drop (Alphagan® P 0.1%, 50 µL) was given (n = 5). The IOP were measured immediately before the topical dosing (0 h), and at 2, 4, 6 and 8 h after the eyedrop administration. For the pharmacokinetics studies, rabbits (n = 4 per group) received a single ICM injection with 200 µg (mass of brimonidine) HR97-brimonidine as described above. Rabbits were sacrificed 1, 7, 14, 28 days after the injection, and iris, aqueous, and retina were collected for measuring the brimonidine concentration.

[4] = Ocular safety evaluation / ocular grading after ICM injection; settings: single ICM injection, 200 µg brimonidine equivalent
Experimental: as §1

[5] = tested on: melanin nanoparticles (mNPs); test: In vitro melanin binding assay (binding capacity and Kd, RED device, HPLC); design: species or system Sepia officinalis
Experimental: The solutions (400 µL) were then mixed thoroughly with 400 µL of 1 mg/mL mNPs in pH 6.5 PBS solution and transferred to the inner reservoir of the rapid equilibrium dialysis (RED) device inserts (8 K MWCO). The outer reservoir was filled with 800 µL of pH 6.5 PBS solution. The samples were incubated on an orbital shaker with temperature control at 37 °C and 300 rpm for 48 h (n = 3). The solutions from outer reservoir (free drug) were than collected and transferred to an autosampler vial for HPLC analysis (Prominence LC2030, Shimadzu, Columbia, MD) with photodiode-array detection (PDA) system. […] The amount of bound drug was used to calculate the binding capacity (mol drug/mg melanin) and the dissociation constant (Kd) as previously described[20],[34].

[6] = Brimonidine in ocular tissues after ICM injection (LC-MS/MS); settings: LC-MS/MS
Experimental: as §1
Brimonidine concentrations in ocular tissues were measured by liquid chromatography-tandem mass spectrometry (LC-MS/MS) as previously described. All samples were collected in pre-weighed tubes and stored at −80 °C until processing for analysis. Tissue samples were homogenized in 100–600 μL 1 × PBS using a Bullet Blender® (Next Advance, Inc, Troy, NY, USA) before extraction. Brimonidine were extracted from 15 to 50 μL of tissue homogenates with 50 μL of acetonitrile containing 50/50/2.5 ng/mL of the internal standards. The top layer was then transferred to an autosampler vial for LC-MS/MS analysis after centrifugation. All ocular tissue samples were analyzed using a 1 × PBS standard curve for brimonidine. […] The column effluent was monitored using a 5500 mass-spectrometric detector (Sciex) using electrospray ionization operating in positive mode. The mobile phase A was water containing 0.1% formic acid and mobile phase B was acetonitrile containing 0.1% formic acid. The gradient started with mobile phase B held at 20% for 0.5 min and increased to 100% over 0.5 min; 100% mobile phase B was held for 1 min and then returned to 20% mobile phase B and allowed to equilibrate for 1 min.

[7] = binding capacity and dissociation constant of ocular drugs, melanin
[8] = 28 days after single ICM injection of HR97-brimonidine (200 µg brimonidine equivalent), n = 3-4

CC(C)[C@H](NC(=O)CCCCCN1C(=O)CC(SC[C@H](NC(=O)[C@H](CCCNC(=N)N)NC(=O)[C@@H]2CCCN2C(=O)[C@H](CCCCN)NC(=O)[C@H](CCCNC(=N)N)NC(=O)[C@H](CCCCN)NC(=O)[C@H](CCCNC(=N)N)NC(=O)[C@H](CCCNC(=N)N)NC(=O)[C@H](CCCCN)NC(=O)CNC(=O)[C@H](CO)NC(=O)[C@@H](N)Cc2ccccc2)C(=O)O)C1=O)C(=O)N[C@@H](CCCNC(N)=O)C(=O)Nc1ccc(C[N+]2=C(Nc3ccc4nccnc4c3Br)NCC2)cc1 (stereo partly shown) [HR97-VC-PAB-brimonidine] (H-FSGKRRKRKPRC(X1)-OH; N-terminus and C-terminus assumed)
remaining at 24 h, 1 mg/mL ([1]; day 1, replicate 1): 99.1% | remaining at 24 h, 1 mg/mL ([1]; day 1, replicate 2): 93.5% | remaining at 24 h, 1 mg/mL ([1]; day 1, replicate 3): 95.5% | remaining at 168 h, 1 mg/mL ([1]; day 7, replicate 1): 90.8% | remaining at 168 h, 1 mg/mL ([1]; day 7, replicate 2): 101% | remaining at 168 h, 1 mg/mL ([1]; day 7, replicate 3): 96.4% | remaining at 336 h, 1 mg/mL ([1]; day 14, replicate 1): 92.6% | remaining at 336 h, 1 mg/mL ([1]; day 14, replicate 2): 95.3% | remaining at 336 h, 1 mg/mL ([1]; day 14, replicate 3): 93.9% | remaining at 672 h, 1 mg/mL ([1]; day 28, replicate 1): 88.5% | remaining at 672 h, 1 mg/mL ([1]; day 28, replicate 2): 95% | remaining at 672 h, 1 mg/mL ([1]; day 28, replicate 3): 92.3%

FSGKRRKRKPRC [HR97-brimonidine]
cathepsin cleavage assay, Cathepsin ([2]; replicate 1): 47 | cathepsin cleavage assay, Cathepsin ([2]; replicate 2): 58 | cathepsin cleavage assay, Cathepsin ([2]; replicate 3): 42 | brimonidine liberated with human cathepsin cocktails ([2]; conjugate 200 μM diluted 1:1 with 100 mM citrate buffer pH 5.5, 5 mM cysteine, cathepsins B, K, L, S 150 nM each, within 48 h, 37 °C, HPLC, normalized to 0 h, n = 3): ~ 52% | AUClast of cumulative ΔIOP, fold greater compared to brimonidine solution ([3]; 20-day measurement period after ICM injection, n = 5, p < 0.001): ~ 17 fold | time during which mean ΔIOP remained significantly larger than with brimonidine solution or physical mixture ([3]; single ICM injection): up to 14 days | peak ΔIOP at 2 days ([3]; single ICM injection, 200 µg brimonidine equivalent, n = 5): −4.9 ± 0.46 mmHg | time for the mean ΔIOP to return to baseline ([3]; single ICM injection, n = 5 per group): 20 days | duration of IOP lowering ([3]; single ICM injection, normotensive rabbits): up to 18 days | ocular toxicity, ophthalmologist evaluation on day 7 [4]: no apparent inflammation or fibrin strands | Binding Capacity (mole/mg melanin) [5, 7]: 5.9e-7 mole/mg melanin | Kd [5, 7]: 4.36 µM | increase in the in vitro melanin binding capacity of brimonidine by conjugation to HR97 ([5]; versus brimonidine): ~ 10 fold | brimonidine released from the conjugate in human aqueous fluid ([1]; 1 mg/mL in human aqueous (donor eyes, 0.02 µm filtered), 37 °C, over 28 days, HPLC 250 nm, normalized to day 0, mean of n = 3): ~ 7% | brimonidine concentration in aqueous humor [6, 8]: 0.4 ng/g | brimonidine concentration in iris [6, 8]: 980 ng/g | brimonidine concentration in retina [6, 8]: 8.3 ng/g | brimonidine concentration in the aqueous ([6]; day 7 after single ICM injection of HR97-brimonidine): 83.3 ng/g | brimonidine concentration in the aqueous ([6]; day 14 after single ICM injection of HR97-brimonidine): 3.9 ng/g
